For this assay, the target named is TAX9-loaded HLA-A*02:01/β2m. Nature of the assay: SPR.

Our source for the fold decrease in KD against TAPBPR^WT (so in the source) values is article PMC11745410.

In the case of “TAPBPR^∆ALAS (A29-S32 deletion) (from UniProt Q9BX59 22-405) (natural protein)”, the fold decrease in KD against TAPBPR^WT (so in the source) is 3 fold.
“TAPBPR^∆G24-R36 (G24-R36 deletion) (from UniProt Q9BX59 22-405) (natural protein)” came in with a fold decrease in KD against TAPBPR^WT (so in the source) of 3 fold.
